Results: the supplement of paper PMC5998384

Columns and labels:
[1] = system: HeLa Kyoto; assay: melting temperature (median over replicates), in situ; higher = more thermally stable
[2] = system: HeLa Kyoto; assay: thermal stability score vs G1/S (z-score of summed log2 fold changes over temperatures); higher = more thermally stable than in G1/S
[3] = system: HeLa Kyoto; assay: solubility in G1/S (NP-40 vs SDS abundance) (log2 ratio); higher = more soluble; details: cell cycle stage: G1/S
[4] = system: HeLa Kyoto; assay: solubility change mitosis vs G1/S (difference of NP-40 vs SDS log2 ratios) (log2 ratio difference); higher = more soluble in mitosis
[5] = cell cycle stage: early G1 (4.5 h after nocodazole release)
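Throughout, for melting temperature (median over replicates), in situ: HeLa Kyoto cells synchronized by double thymidine or nocodazole block, proteins quantified by TMT10plex mass spectrometry, three independent biological replicates.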
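Throughout, for solubility change mitosis vs G1/S (difference of NP-40 vs SDS log2 ratios): synchronized HeLa Kyoto cells (double thymidine block for G1/S, nocodazole release for mitosis), protein amounts in NP-40 versus SDS lysates quantified by mass spectrometry, three biological replicates.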
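Throughout, for solubility in G1/S (NP-40 vs SDS abundance): HeLa Kyoto cells arrested at G1/S by double thymidine block, proteins quantified by TMT10plex mass spectrometry in mild NP-40 versus SDS extracts, three biological replicates.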
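Throughout, for thermal stability score vs G1/S (z-score of summed log2 fold changes over temperatures): synchronized HeLa Kyoto cells, proteins quantified by TMT10plex mass spectrometry, three biological replicates, mitosis taken 0.5 h after nocodazole release, G1/S directly after double thymidine block.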

**Q.** Which results are given for “MADGSLTGGGLEAAAMAPERMGWAVEQELASLEKGLFQDEDSCSDCSYRDKPGSSLQSFMPEGKTFFPEIFQTNQLLFYERFRAYQDYILADCKASEVQEFTAEFLEKVLEPSGWRAVWHTNVFKVLVEITDVDFAALKAVVRLAEPYLCDSQVSTFTMECMKELLDLKEHRLPLQELWVVFDDSGVFDQTALAIEHVRFFYQNIWRSWDEEEEDEYDYFVRCVEPRLRLHYDILEDRVPSGLIVDYHNLLSQCEESYRKFLNLRSSLSNCNSDSEQENISMVEGLKLYSEMEQLKQKLKLIENPLLRYVFGYQKNSNIQAKGVRSSGQKITHVVSSTMMAGLLRSLLTDRLCQEPGEEEREIQFHSDPLSAINACFEGDTVIVCPGHYVVHGTFSIADSIELEGYGLPDDIVIEKRGKGDTFVDCTGADIKISGIKFVQHDAVEGILIVHRGKTTLENCVLQCETTGVTVRTSAEFLMKNSDLYGAKGAGIEIYPGSQCTLSDNGIHHCKEGILIKDFLDEHYDIPKISMVNNIIHNNEGYGVVLVKPTIFSDLQENAEDGTEENKALKIQTSGEPDVAERVDLEELIECATGKMELCARTDPSEQVEGNCEIVNELIAASTQKGQIKKKRLSELGITQADDNLMSQEMFVGIVGNQFKWNGKGSFGTFLF [SHCBP1]”?
**A.** melting temperature ([1]; cell cycle stage: G1/S): 49 °C; melting temperature ([1]; cell cycle stage: mitosis): 50.4 °C; thermal stability score [2, 5]: 0.216; thermal stability score ([2]; cell cycle stage: mitosis): 1.36; solubility in G1/S (log2) [3]: -0.00275; solubility change mitosis (log2) [4]: -0.188

**Q.** How did the melting temperature ([1]; cell cycle stage: G1/S) turn out when “MDGLLNPRESSKFIAENSRDVFIDSGGVRRVAELLLAKAAGPELRVEGWKALHELNPRAADEAAVNWVFVTDTLNFSFWSEQDEHKCVVRYRGKTYSGYWSLCAAVNRALDEGIPITSASYYATVTLDQVRNILRSDTDVSMPLVEERHRILNETGKILLEKFGGSFLNCVRESENSAQKLMHLVVESFPSYRDVTLFEGKRVSFYKRAQILVADTWSVLEGKGDGCFKDISSITMFADYRLPQVLAHLGALKYSDDLLKKLLKGEMLSYGDRQEVEIRGCSLWCVELIRDCLLELIEQKGEKPNGEINSILLDYYLWDYAHDHREDMKGIPFHRIRCIYY [C9ORF64]” was run?
**A.** 50.2 °C

**Q.** And the melting temperature ([1]; cell cycle stage: mitosis)?
**A.** 49.7 °C

**Q.** And the thermal stability score [2, 5]?
**A.** -1.65

**Q.** What about the thermal stability score ([2]; cell cycle stage: mitosis) of the same sequence?
**A.** 0.153

**Q.** What about the “solubility in G1/S (log2)” value [3] of the same sequence?
**A.** -0.318

**Q.** What about the “solubility change mitosis (log2)” value [4] of the same sequence?
**A.** -0.283

**Q.** What does the source list for “MAAAAAAAAAAGAAGGRGSGPGRRRHLVPGAGGEAGEGAPGGAGDYGNGLESEELEPEELLLEPEPEPEPEEEPPRPRAPPGAPGPGPGSGAPGSQEEEEEPGLVEGDPGDGAIEDPELEAIKARVREMEEEAEKLKELQNEVEKQMNMSPPPGNAGPVIMSIEEKMEADARSIYVGNVDYGATAEELEAHFHGCGSVNRVTILCDKFSGHPKGFAYIEFSDKESVRTSLALDESLFRGRQIKVIPKRTNRPGISTTDRGFPRARYRARTTNYNSSRSRFYSGFNSRPRGRVYRGRARATSWYSPY [PABPN1]”?
**A.** melting temperature ([1]; cell cycle stage: G1/S): 48.9 °C; melting temperature ([1]; cell cycle stage: mitosis): 50.5 °C; thermal stability score [2, 5]: 1.6; thermal stability score ([2]; cell cycle stage: mitosis): 2.2; solubility in G1/S (log2) [3]: 0.016; solubility change mitosis (log2) [4]: 0.441

**Q.** Which melting temperature ([1]; cell cycle stage: G1/S) does the source give for “MLKALFLTMLTLALVKSQDTEETITYTQCTDGYEWDPVRQQCKDIDECDIVPDACKGGMKCVNHYGGYLCLPKTAQIIVNNEQPQQETQPAEGTSGATTGVVAASSMATSGVLPGGGFVASAAAVAGPEMQTGRNNFVIRRNPADPQRIPSNPSHRIQCAAGYEQSEHNVCQDIDECTAGTHNCRADQVCINLRGSFACQCPPGYQKRGEQCVDIDECTIPPYCHQRCVNTPGSFYCQCSPGFQLAANNYTCVDINECDASNQCAQQCYNILGSFICQCNQGYELSSDRLNCEDIDECRTSSYLCQYQCVNEPGKFSCMCPQGYQVVRSRTCQDINECETTNECREDEMCWNYHGGFRCYPRNPCQDPYILTPENRCVCPVSNAMCRELPQSIVYKYMSIRSDRSVPSDIFQIQATTIYANTINTFRIKSGNENGEFYLRQTSPVSAMLVLVKSLSGPREHIVDLEMLTVSSIGTFRTSSVLRLTIIVGPFSF [EFEMP1]” here?
**A.** 54.2 °C

**Q.** And the melting temperature ([1]; cell cycle stage: mitosis)?
**A.** 54.1 °C

**Q.** And the thermal stability score [2, 5]?
**A.** 4.52

**Q.** And the thermal stability score ([2]; cell cycle stage: mitosis)?
**A.** 3.96

**Q.** And the “solubility in G1/S (log2)” value [3]?
**A.** -0.278

**Q.** What about the “solubility change mitosis (log2)” value [4] of the same sequence?
**A.** -0.165

**Q.** For “MSASSLLEQRPKGQGNKVQNGSVHQKDGLNDDDFEPYLSPQARPNNAYTAMSDSYLPSYYSPSIGFSYSLGEAAWSTGGDTAMPYLTSYGQLSNGEPHFLPDAMFGQPGALGSTPFLGQHGFNFFPSGIDFSAWGNNSSQGQSTQSSGYSSNYAYAPSSLGGAMIDGQSAFANETLNKAPGMNTIDQGMAALKLGSTEVASNVPKVVGSAVGSGSITSNIVASNSLPPATIAPPKPASWADIASKPAKQQPKLKTKNGIAGSSLPPPPIKHNMDIGTWDNKGPVAKAPSQALVQNIGQPTQGSPQPVGQQANNSPPVAQASVGQQTQPLPPPPPQPAQLSVQQQAAQPTRWVAPRNRGSGFGHNGVDGNGVGQSQAGSGSTPSEPHPVLEKLRSINNYNPKDFDWNLKHGRVFIIKSYSEDDIHRSIKYNIWCSTEHGNKRLDAAYRSMNGKGPVYLLFSVNGSGHFCGVAEMKSAVDYNTCAGVWSQDKWKGRFDVRWIFVKDVPNSQLRHIRLENNENKPVTNSRDTQEVPLEKAKQVLKIIASYKHTTSIFDDFSHYEKRQEEEESVKKERQGRGK [YTHDF2]”, which melting temperature ([1]; cell cycle stage: G1/S) is on record?
**A.** 51 °C

**Q.** And the melting temperature ([1]; cell cycle stage: mitosis)?
**A.** 50.7 °C

**Q.** And the thermal stability score [2, 5]?
**A.** -0.975

**Q.** And the thermal stability score ([2]; cell cycle stage: mitosis)?
**A.** -1.92

**Q.** What about the “solubility in G1/S (log2)” value [3] of the same sequence?
**A.** 0.00424

**Q.** And the “solubility change mitosis (log2)” value [4]?
**A.** 0.0349

**Q.** What does the source list for “MAEPFLSEYQHQPQTSNCTGAAAVQEELNPERPPGAEERVPEEDSRWQSRAFPQLGGRPGPEGEGSLESQPPPLQTQACPESSCLREGEKGQNGDDSSAGGDFPPPAEVEPTPEAELLAQPCHDSEASKLGAPAAGGEEEWGQQQRQLGKKKHRRRPSKKKRHWKPYYKLTWEEKKKFDEKQSLRASRIRAEMFAKGQPVAPYNTTQFLMDDHDQEEPDLKTGLYSKRAAAKSDDTSDDDFMEEGGEEDGGSDGMGGDGSEFLQRDFSETYERYHTESLQNMSKQELIKEYLELEKCLSRMEDENNRLRLESKRLGGDDARVRELELELDRLRAENLQLLTENELHRQQERAPLSKFGD [HEXIM1]”?
**A.** melting temperature ([1]; cell cycle stage: G1/S): 57.6 °C; melting temperature ([1]; cell cycle stage: mitosis): 55.5 °C; thermal stability score [2, 5]: -4.2; thermal stability score ([2]; cell cycle stage: mitosis): -2.03; solubility in G1/S (log2) [3]: 0.211; solubility change mitosis (log2) [4]: 0.123

**Q.** For “MAAMASLGALALLLLSSLSRCSAEACLEPQITPSYYTTSDAVISTETVFIVEISLTCKNRVQNMALYADVGGKQFPVTRGQDVGRYQVSWSLDHKSAHAGTYEVRFFDEESYSLLRKAQRNNEDISIIPPLFTVSVDHRGTWNGPWVSTEVLAAAIGLVIYYLAFSAKSHIQA [SSR4]”, which melting temperature ([1]; cell cycle stage: G1/S) is on record?
**A.** 55.5 °C

**Q.** What about the melting temperature ([1]; cell cycle stage: mitosis) of the same sequence?
**A.** 54.9 °C

**Q.** What about the thermal stability score [2, 5] of the same sequence?
**A.** 1.62

**Q.** What about the thermal stability score ([2]; cell cycle stage: mitosis) of the same sequence?
**A.** -0.139

**Q.** And the “solubility in G1/S (log2)” value [3]?
**A.** 0.0435

**Q.** What about the “solubility change mitosis (log2)” value [4] of the same sequence?
**A.** 0.0331

**Q.** Which results are given for “MATESPATRRVQVAEHPRLLKLKEMFNSKFGSIPKFYVRAPGRVNIIGEHIDYCGYSVLPMAVEQDVLIAVEPVKTYALQLANTNPLYPDFSTSANNIQIDKTKPLWHNYFLCGLKGIQEHFGLSNLTGMNCLVDGNIPPSSGLSSSSALVCCAGLVTLTVLGRNLSKVELAEICAKSERYIGTEGGGMDQSISFLAEEGTAKLIEFSPLRATDVKLPSGAVFVIANSCVEMNKAATSHFNIRVMECRLAAKLLAKYKSLQWDKVLRLEEVQAKLGISLEEMLLVTEDALHPEPYNPEEICRCLGISLEELRTQILSPNTQDVLIFKLYQRAKHVYSEAARVLQFKKICEEAPENMVQLLGELMNQSHMSCRDMYECSCPELDQLVDICRKFGAQGSRLTGAGWGGCTVSMVPADKLPSFLANVHKAYYQRSDGSLAPEKQSLFATKPGGGALVLLEA [GALK2]”?
**A.** melting temperature ([1]; cell cycle stage: G1/S): 54.5 °C; melting temperature ([1]; cell cycle stage: mitosis): 54.2 °C; thermal stability score [2, 5]: 0.289; thermal stability score ([2]; cell cycle stage: mitosis): 0.99; solubility in G1/S (log2) [3]: 0.145; solubility change mitosis (log2) [4]: -0.141

**Q.** What does the source list for “MSFSEMNRRTLAFRGGGLVTASGGGSTNNNAGGEASAWPPQPQPRQPPPPAPPALQPPNGRGADEEVELEGLEPQDLEASAGPAAGAAEEAKELLLPQDAGGPTSLGGGAGGPLLAERNRRTLAFRGGGGGGLGNNGSSRGRPETSVWPLRHFNGRGPATVDLELDALEGKELMQDGASLSDSTEDEEEGASLGDGSGAEGGSCSSSRRSGGDGGDEVEGSGVGAGEGETVQHFPLARPKSLMQKLQCSFQTSWLKDFPWLRYSKDTGLMSCGWCQKTPADGGSVDLPPVGHDELSRGTRNYKKTLLLRHHVSTEHKLHEANAQESEIPSEEGYCDFNSRPNENSYCYQLLRQLNEQRKKGILCDVSIVVSGKIFKAHKNILVAGSRFFKTLYCFSNKESPNQNNTTHLDIAAVQGFSVILDFLYSGNLVLTSQNAIEVMTVASYLQMSEVVQTCRNFIKDALNISIKSEAPESVVVDYNNRKPVNRDGLSSSRDQKIASFWATRNLTNLASNVKIENDGCNVDEGQIENYQMNDSSWVQDGSPEMAENESEGQTKVFIWNNMGSQGIQETGKTRRKNQTTKRFIYNIPPNNETNLEDCSVMQPPVAYPEENTLLIKEEPDLDGALLSGPDGDRNVNANLLAEAGTSQDGGDAGTSHDFKYGLMPGPSNDFKYGLIPGTSNDFKYGLIPGASNDFKYGLLPESWPKQETWENGESSLIMNKLKCPHCSYVAKYRRTLKRHLLIHTGVRSFSCDICGKLFTRREHVKRHSLVHKKDKKYKCMVCKKIFMLAASVGIRHGSRRYGVCVDCADKSQPGGQEGVDQGQDTEFPRDEEYEENEVGEADEELVDDGEDQNDPSRWDESGEVCMSLDD [ZBTB10]”?
**A.** melting temperature ([1]; cell cycle stage: mitosis): 53.4 °C; thermal stability score [2, 5]: -0.229; thermal stability score ([2]; cell cycle stage: mitosis): -0.231; solubility in G1/S (log2) [3]: -0.114; solubility change mitosis (log2) [4]: -0.0451
